Results taken from US20170137504A1 (TERACLON IDF S L, published 2017).

Experiments:
[1] = molecular target: T1, VEGF (4 ng/mL, added in the in vitro angiogenesis assay) (UniProt P15692-4 27-191, limits assumed); experiment: cell-based or functional assay
[2] = molecular target: T1, VEGF (4 ng/mL, added in the in vitro …); experiment: cell-based or functional assay; remark: listed apart in the source

T1 sequence (P15692 other isoform, or with tags, fused parts or gaps limits assumed): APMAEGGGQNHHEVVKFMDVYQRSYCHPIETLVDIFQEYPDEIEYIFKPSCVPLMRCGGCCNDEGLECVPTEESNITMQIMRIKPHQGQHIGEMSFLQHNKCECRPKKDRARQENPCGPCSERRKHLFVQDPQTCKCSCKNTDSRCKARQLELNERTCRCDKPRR

B1: anti-VEGF vNAR V19 (VNAR, not shown: small tags and cut ends)
VNAR: AQRVEQTPRTATKETGESLTINCVLRDASFELKDTGWYRTKLGSTNEQSISIGGRYVETVNKGSKSFSLRISDLRVEDSGTYKCQAFYSLPLGDYNYSLLFRGEKGAGTVLTVN
fold less antibody concentration than V13 for an inhibitory effect on angiogenesis [1]: ≤ 12 times less
IC50, average value (in vitro angiogenesis, HUVEC/NHDF co-culture) [2]: 30.2 µg/mL
IC50, branching points (in vitro angiogenesis, HUVEC/NHDF co-culture) [2]: 24.7 µg/mL
IC50, length of the tubes (in vitro angiogenesis, HUVEC/NHDF co-culture) [2]: 35.8 µg/mL

B2: anti-VEGF vNAR V32R (VNAR, not shown: small tags and cut ends)
chain: AASLDQTPRTATRETGESLTINCVFTDSSCGLCGTSWFRNNPGSTDWERITIGGRYVESVNKGAKSFSLQIKDLTVEDSVTYYCKAQGHRYFSKVCELRCPSYYYDGAGTVLTVN
fold less antibody concentration than V13 for an inhibitory effect on angiogenesis [1]: ≤ 12 times less
IC50, average value (in vitro angiogenesis, HUVEC/NHDF co-culture) [2]: 23.4 µg/mL
IC50, branching points (in vitro angiogenesis, HUVEC/NHDF co-culture) [2]: 19.3 µg/mL
IC50, length of the tubes (in vitro angiogenesis, HUVEC/NHDF co-culture) [2]: 27.6 µg/mL

B3: anti-VEGF vNAR V13 (other, not shown: small tags and cut ends)
chain: ASLDQTPRTATRETGESLSINCVLTDTSHILFGTKWLWNNPGSTDWESITIGGRYAESVNNQAKSFSLQIKDLTVEDSGTYYCKAQTIGRRKNLLPRPLVNGIAAMGYSSSDYDGAGTVLTVN
IC50, average value (in vitro angiogenesis, HUVEC/NHDF co-culture) [2]: 388 µg/mL
IC50, branching points (in vitro angiogenesis, HUVEC/NHDF co-culture) [2]: 340 µg/mL
IC50, length of the tubes (in vitro angiogenesis, HUVEC/NHDF co-culture) [2]: 436 µg/mL
